How the values were obtained:
[1] = biological target: GnRH receptor (GnRHR or LHRHR) (UniProt P30968); assay: cell-based or functional assay
[2] = biological target: bradykinin receptor 2 (BDKRB2) (UniProt P30411); assay: cell-based or functional assay
[3] = biological target: melanocortin receptor 1 (MC1R) (UniProt Q01726); assay: cell-based or functional assay
[4] = biological target: melanocortin receptor 4 (MC4R) (UniProt P32245); assay: cell-based or functional assay
PTH receptor 1 (PTHR1) = PTH receptor 1 (PTHR1) (UniProt Q03431); assay: cell-based or functional assay
Chain of PTH receptor 1 (PTHR1) (Q03431 27-593 limits assumed): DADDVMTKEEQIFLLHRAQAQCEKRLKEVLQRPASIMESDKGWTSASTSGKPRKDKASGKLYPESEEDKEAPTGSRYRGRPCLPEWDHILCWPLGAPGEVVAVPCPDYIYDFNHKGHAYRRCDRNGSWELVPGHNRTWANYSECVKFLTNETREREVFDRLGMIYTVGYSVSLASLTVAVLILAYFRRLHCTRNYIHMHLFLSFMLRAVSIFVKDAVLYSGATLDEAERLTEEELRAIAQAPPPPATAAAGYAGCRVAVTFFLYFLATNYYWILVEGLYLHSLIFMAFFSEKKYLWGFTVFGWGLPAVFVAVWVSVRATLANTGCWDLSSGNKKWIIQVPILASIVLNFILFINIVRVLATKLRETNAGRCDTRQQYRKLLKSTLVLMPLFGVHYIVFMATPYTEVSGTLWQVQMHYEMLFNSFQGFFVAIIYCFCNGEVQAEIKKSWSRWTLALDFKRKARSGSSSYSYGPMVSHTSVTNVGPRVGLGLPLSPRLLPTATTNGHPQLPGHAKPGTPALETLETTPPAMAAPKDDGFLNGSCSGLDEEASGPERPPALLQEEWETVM

[5] = biological target: FITC-labled GnRH molecule (a peptide) (UniProt P01148); assay: Centricon filter release assay: FITC-GnRH that passed into the lower chamber with nongel-forming peptide at 1 mg/10 ml (control without carrier 72.50)
[6] = biological target: FITC-labled GnRH molecule (a peptide) (UniProt P01148); assay: Centricon filter release assay: FITC-GnRH that passed into the lower chamber with nongel-forming peptide at 1 mg/100 ml (control without carrier 72.50)
[7] = biological target: kappa opioid receptor (OPRK1) (UniProt P41145); assay: cell-based or functional assay
Chain of kappa opioid receptor (OPRK1) (P41145 whole entry): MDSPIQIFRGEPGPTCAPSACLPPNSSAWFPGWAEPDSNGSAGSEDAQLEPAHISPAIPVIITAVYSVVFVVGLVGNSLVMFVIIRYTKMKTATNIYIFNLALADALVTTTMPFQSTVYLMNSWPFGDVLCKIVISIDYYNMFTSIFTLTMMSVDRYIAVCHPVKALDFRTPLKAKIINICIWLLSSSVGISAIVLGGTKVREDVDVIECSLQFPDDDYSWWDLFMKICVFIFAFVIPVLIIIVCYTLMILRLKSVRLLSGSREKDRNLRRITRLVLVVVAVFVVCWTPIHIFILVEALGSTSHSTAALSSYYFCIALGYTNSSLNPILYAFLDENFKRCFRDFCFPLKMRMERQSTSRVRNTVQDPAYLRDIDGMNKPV

Chain of bradykinin receptor 2 (BDKRB2) (P30411 whole entry): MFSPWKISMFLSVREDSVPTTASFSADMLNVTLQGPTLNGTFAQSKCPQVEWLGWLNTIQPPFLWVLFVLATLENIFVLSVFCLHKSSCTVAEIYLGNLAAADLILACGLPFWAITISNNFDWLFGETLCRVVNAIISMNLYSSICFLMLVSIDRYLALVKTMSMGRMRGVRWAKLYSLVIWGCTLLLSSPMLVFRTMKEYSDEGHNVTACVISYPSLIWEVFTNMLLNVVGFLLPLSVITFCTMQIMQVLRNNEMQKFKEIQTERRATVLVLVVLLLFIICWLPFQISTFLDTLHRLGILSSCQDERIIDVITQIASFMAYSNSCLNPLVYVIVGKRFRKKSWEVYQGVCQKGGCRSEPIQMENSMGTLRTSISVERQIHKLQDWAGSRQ
Chain of melanocortin receptor 1 (MC1R) (Q01726 whole entry): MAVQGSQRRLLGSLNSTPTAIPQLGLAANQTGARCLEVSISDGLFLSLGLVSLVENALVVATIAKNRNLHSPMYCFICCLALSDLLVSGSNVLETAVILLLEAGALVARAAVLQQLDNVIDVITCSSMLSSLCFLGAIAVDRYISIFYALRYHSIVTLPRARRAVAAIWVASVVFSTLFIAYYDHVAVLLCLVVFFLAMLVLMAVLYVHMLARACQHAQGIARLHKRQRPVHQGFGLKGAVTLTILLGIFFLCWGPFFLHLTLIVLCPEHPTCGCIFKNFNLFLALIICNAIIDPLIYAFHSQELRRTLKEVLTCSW
Chain of GnRH receptor (GnRHR or LHRHR) (P30968 whole entry): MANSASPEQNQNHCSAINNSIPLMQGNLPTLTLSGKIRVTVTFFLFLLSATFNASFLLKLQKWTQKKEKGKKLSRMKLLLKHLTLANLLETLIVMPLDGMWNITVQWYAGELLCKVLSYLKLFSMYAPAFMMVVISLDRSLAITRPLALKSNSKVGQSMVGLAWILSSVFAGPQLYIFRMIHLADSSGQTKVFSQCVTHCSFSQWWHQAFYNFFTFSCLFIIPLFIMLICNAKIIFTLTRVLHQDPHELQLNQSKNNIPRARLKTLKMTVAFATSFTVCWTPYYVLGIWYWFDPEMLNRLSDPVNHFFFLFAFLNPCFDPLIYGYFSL
Chain of melanocortin receptor 4 (MC4R) (P32245 whole entry): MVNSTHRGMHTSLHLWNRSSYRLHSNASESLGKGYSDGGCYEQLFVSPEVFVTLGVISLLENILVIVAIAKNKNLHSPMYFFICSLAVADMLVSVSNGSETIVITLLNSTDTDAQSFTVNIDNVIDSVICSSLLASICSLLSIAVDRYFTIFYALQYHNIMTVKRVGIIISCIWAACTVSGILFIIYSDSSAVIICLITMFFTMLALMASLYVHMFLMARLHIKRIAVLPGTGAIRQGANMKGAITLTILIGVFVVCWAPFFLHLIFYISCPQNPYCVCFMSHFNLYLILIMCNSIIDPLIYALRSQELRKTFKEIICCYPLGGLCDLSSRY

Question: What does the source list for Cetrorelix (positive control) (peptide)?
Answer: IC50 (nM), GnRHR calcium flux antagonistic assay [1]: 0.08 nM; Max Activity % of positive control, GnRHR calcium flux antagonistic assay (% of positive control) [1]: 91.4

Question: Which IC50 (nM), BDKRB2 arrestin antagonistic assay [2] does the source give for “HOE140 (a BKR2 antagonist), (D-Arg)-Arg-Pro-Hyp-Gly-Thi-Ser-(D-Tic)-Oic-Arg (peptide)” here?
Answer: 132 nM

Question: And the Max Activity % of positive control, BDKRB2 arrestin antagonistic assay (% of positive control) [2]?
Answer: 100

Question: For Melanotan II peptide (positive control), which EC50 (nM), MC1R cAMP agonistic assay [3] is on record?
Answer: 0.56 nM

Question: And the Max Activity % of positive control, MC1R cAMP agonistic assay (% of positive control) [3]?
Answer: 102

Question: What about the EC50 (nM), MC4R cAMP agonistic assay [4] of the same substance?
Answer: 2 nM

Question: What about the Max Activity % of positive control, MC4R cAMP agonistic assay (% of positive control) [4] of the same substance?
Answer: 101

Question: “PTH(1-34) peptide (positive control) (from UniProt P01270 32-65)” was tested. Which EC50 (nM), PTHR1 cAMP agonistic assay (PTH receptor 1 (PTHR1)) did it give?
Answer: 0.8 nM

Question: What about the Max Activity % of positive control, PTHR1 cAMP agonistic assay (% of positive control) (PTH receptor 1 (PTHR1)) of the same substance?
Answer: 101

Question: For “SEQ ID NO:133, Pal-VGSNTY-NH2, nongel-forming peptide”, which Fluorescent Reading (average of duplicates) [5] is on record?
Answer: 55.4

Question: And the Fluorescent Reading (average of duplicates) [6]?
Answer: 71

Question: What does the source list for “SEQ ID NO: 203, Pal-HSY-(D-Nal)-(D-Cpa)-(D-Pal)-SY-(D-Cit)-LRP-(D-Ala)-NH2, gel-forming GnRHR antagonist analog (peptide)”?
Answer: IC50 (nM), GnRHR calcium flux antagonistic assay [1]: < 0.51 nM; Max Activity % of positive control, GnRHR calcium flux antagonistic assay (% of positive control) [1]: 109

Question: “SEQ ID NO: 214, Pal-SSPHSY-miniPEG-(D-Phe)-(D-Phe)-Trp-(D-Arg), gel-forming kappa opioid receptor agonist (peptide)” was tested. Which EC50 (nM), OPRK1 cAMP agonistic assay [7] did it give?
Answer: 272 nM

Question: What about the Max Activity % of positive control, OPRK1 cAMP agonistic assay (% of positive control) [7] of the same substance?
Answer: 62

Question: What does the source list for “SEQ ID NO: 224, Pal-HSYS-Nle-EH-(D-Phe)-RWGKPV-NH2, conjugated gel-forming Afamelanotide (melanotan I) analog (peptide)”?
Answer: EC50 (nM), MC1R cAMP agonistic assay [3]: < 0.05 nM; Max Activity % of positive control, MC1R cAMP agonistic assay (% of positive control) [3]: 120

Question: Which results are given for “SEQ ID NO: 228, Pal-HSYRC-(D-Ala)-H-(D-Phe)-RWC-NH2, conjugated gel-forming setmelanotide analog (peptide)”?
Answer: EC50 (nM), MC4R cAMP agonistic assay [4]: 0.15 nM; Max Activity % of positive control, MC4R cAMP agonistic assay (% of positive control) [4]: 115

Question: How did the IC50 (nM), BDKRB2 arrestin antagonistic assay [2] turn out when “SEQ ID NO: 234, Pal-HSY-(D-Arg)-Arg-Pro-Hyp-Gly-Thi-Ser-(D-Tic)-Oic-Arg-NH2, conjugated bradykinin receptor antagonist (peptide)” was run?
Answer: 53.3 nM

Question: And the Max Activity % of positive control, BDKRB2 arrestin antagonistic assay (% of positive control) [2]?
Answer: 112

— US20200405868A1, “GEL-FORMING POLYPEPTIDES” (priority 2018, published 2020)
